Results from the Immune Epitope Database (IEDB).
Blank lines part the entries; values can stand above or below the sequence they belong to.

Columns and labels:
[1] = biological target: HLA-A*01:01; assay: IEDB peptide-MHC binding, purified MHC/competitive/radioactivity; filed as Kd, often an IC50 or EC50 that approximates it; ≥ and ≤ were set here for values at or beyond the usual limits of such assays
[2] = biological target: HLA-A*24:02; assay: as above
[3] = biological target: HLA-A*23:01; assay: as above
[4] = biological target: HLA-A*11:01; assay: IEDB peptide-MHC binding, purified MHC/direct/fluorescence; filed as Kd, often an IC50 or EC50 that approximates it; ≥ and ≤ were set here for values at or beyond the usual limits of such assays; details: source organism: Homo sapiens
[5] = biological target: HLA-A*03:01; assay: IEDB peptide-MHC binding, purified MHC/competitive/radioactivity; filed as Kd, often an IC50 or EC50 that approximates it; ≥ and ≤ were set here for values at or beyond the usual limits of such assays; details: source organism: Vaccinia virus WR
[6] = biological target: HLA-A*33:01; assay: as above; details: source organism: Vaccinia virus WR
[7] = biological target: HLA-A*11:01; assay: as above; details: source organism: Vaccinia virus WR
[8] = biological target: HLA-A*31:01; assay: as above; details: source organism: Vaccinia virus WR
[9] = biological target: HLA-A*68:01; assay: as above; details: source organism: Vaccinia virus WR
[10] = biological target: HLA-A*29:02; assay: as above
[11] = biological target: HLA-A*30:02; assay: as above
[12] = biological target: HLA-A*26:01; assay: as above
[13] = biological target: HLA-B*44:02; assay: as above
[14] = biological target: HLA-B*44:03; assay: as above
[15] = biological target: HLA-B*58:01; assay: IEDB peptide-MHC binding, purified MHC/direct/fluorescence; filed as Kd, often an IC50 or EC50 that approximates it; ≥ and ≤ were set here for values at or beyond the usual limits of such assays; details: source organism: Mycobacterium tuberculosis
[16] = biological target: HLA-A*03:01; assay: as above; details: source organism: Cryptosporidium parvum
[17] = biological target: HLA-A*02:03; assay: IEDB peptide-MHC binding, purified MHC/competitive/radioactivity; filed as Kd, often an IC50 or EC50 that approximates it; ≥ and ≤ were set here for values at or beyond the usual limits of such assays
[18] = biological target: HLA-A*02:02; assay: as above
[19] = biological target: HLA-A*02:06; assay: as above
[20] = source organism: Dengue virus 3 Martinique/1243/1999
[21] = source organism: Dengue virus 4 Philippines/H241/1956
[22] = source organism: Vaccinia virus WR
[23] = source organism: Lassa virus Josiah
[24] = source organism: SARS coronavirus Tor2
[25] = source organism: Lymphocytic choriomeningitis virus (strain Armstrong)
[26] = source organism: Dengue virus 4 Dominica/814669/1981
[27] = source organism: Dengue virus 2 Jamaica/1409/1983
[28] = source organism: Dengue virus 3 Sri Lanka/1266/2000
[29] = source organism: Dengue virus 1 Brazil/97-11/1997
[30] = source organism: Mammarenavirus guanaritoense
[31] = source organism: Mammarenavirus machupoense

Sequence: LTLTAAVLLL
Kd [1, 20]: 13900 nM

Sequence: RYPLTFGWCF
Kd ([2]; source organism: HIV-1 M:B_ARV2/SF2): 17 nM

Sequence: PWLSSKPEF
Kd [3, 21]: 116 nM

Kd [4]: 17500 nM
Sequence: ERPAFGIQK

Sequence: IVNNQESNKY
Kd [5]: 487 nM
Kd [6]: ≥ 70000 nM
Kd [7]: 1650 nM
Kd [8]: ≥ 52900 nM
Kd [9]: 7540 nM
Kd [10, 22]: ≥ 32600 nM

Sequence: HYLCLNCLT
Kd [11, 23]: 3020 nM
Kd [1, 23]: 6910 nM
Kd [12, 23]: ≥ 77900 nM

Sequence: ETPHLMGWDY
Kd [11, 24]: 696 nM
Kd [2, 24]: ≥ 70300 nM
Kd [1, 24]: 301 nM
Kd [12, 24]: 4.91 nM
Kd [10, 24]: 92.7 nM
Kd [3, 24]: ≥ 70000 nM

Sequence: IKYTDRKWCF
Kd [2, 20]: 2370 nM

Sequence: NEEKITQQM
Kd [13, 20]: 578 nM

Sequence: FSCGLSLQDY
Kd [5]: 977 nM
Kd [6]: 9250 nM
Kd [7]: 269 nM
Kd [8]: 2310 nM
Kd [9]: 263 nM
Kd [10, 22]: ≥ 71400 nM

Sequence: AEITPQAST
Kd [13, 20]: 16.5 nM

Sequence: CWLVTNGSYL
Kd [2, 25]: 841 nM
Kd [10, 25]: 2890 nM
Kd [3, 25]: 138 nM

Sequence: SEMGANFRAG
Kd [14, 21]: 868 nM
Kd [13, 21]: 95 nM

Sequence: MELKYSWKT
Kd [14, 20]: 343 nM

Sequence: ENPYRTWAYH
Kd [12, 21]: ≥ 69700 nM

Sequence: MSPGYVLGVF
Kd [2, 26]: 1480 nM
Kd [12, 26]: 1600 nM
Kd [3, 26]: 1000 nM

Sequence: IGKMFESTY
Kd [11, 26]: 338 nM

Sequence: IYGAAFSGV
Kd [2, 27]: 398 nM

Sequence: NTIFTLTVAW
Kd [14, 28]: ≥ 23100 nM
Kd [12, 28]: 8780 nM
Kd [13, 28]: 7260 nM

Sequence: AEIQPQWIAA
Kd [14, 21]: 1120 nM
Kd [13, 21]: 67.2 nM

Sequence: TTEAILPEY
Kd [11, 20]: ≥ 54300 nM
Kd [1, 20]: 30.6 nM
Kd [12, 20]: 1180 nM

Sequence: LVQIENLEY
Kd [11, 21]: 1110 nM
Kd [1, 21]: 90.4 nM

Sequence: ETLMLLALIA
Kd [12, 29]: ≥ 33600 nM

Sequence: LSNAGSNNW
Kd [15]: 48.6 nM

Sequence: FFAFGHMIK
Kd [16]: ≥ 20000 nM

Sequence: SFKVGHHTNF
Kd [2, 30]: 11000 nM
Kd [10, 30]: 814 nM
Kd [3, 30]: 1320 nM

Sequence: CGRGGWSYY
Kd [11, 20]: 253 nM

Sequence: IAVSVYGAI
Kd [17, 22]: 124 nM
Kd [18, 22]: 1480 nM
Kd [19, 22]: 1100 nM

Sequence: FMLNVSYLC
Kd [17, 25]: 1250 nM
Kd [18, 25]: 196 nM
Kd [19, 25]: 932 nM

Sequence: KKGKVVGLY
Kd ([11]; source organism: Dengue virus 2 Peru/IQT2913/1996): 85.3 nM

Sequence: ITLTAALLLL
Kd [1, 27]: 5940 nM
Kd [19, 27]: 27.4 nM

Sequence: EAFETQSGAL
Kd [17, 22]: 995 nM
Kd [18, 22]: 8560 nM
Kd [19, 22]: 15000 nM

Sequence: MYFHRRDLRL
Kd [2, 27]: 149 nM
Kd [3, 27]: 57.3 nM

Sequence: AAAKTPVIVV
Kd [17, 22]: 1520 nM
Kd [18, 22]: 8040 nM
Kd [19, 22]: 13400 nM

Sequence: IAGGVCYYL
Kd [17, 22]: 1680 nM
Kd [18, 22]: 53.1 nM
Kd [19, 22]: 1410 nM

Sequence: ILISLINSLV
Kd [17, 22]: 3.08 nM
Kd [18, 22]: 22.9 nM
Kd [19, 22]: 151 nM

Sequence: LLDCIMYQS
Kd [17, 31]: 2270 nM
Kd [18, 31]: 1530 nM
Kd [19, 31]: 3280 nM

Sequence: NTGMGMYYPT
Kd [17, 22]: ≥ 21000 nM
Kd [18, 22]: ≥ 23400 nM
Kd [19, 22]: 11400 nM

Sequence: AAVIIMAINV
Kd [17, 22]: 607 nM
Kd [18, 22]: 1290 nM
Kd [19, 22]: 446 nM

Sequence: TWAKNIHTAI
Kd [2, 21]: 2000 nM

Sequence: EISSMLNIM
Kd [12, 29]: 657 nM

Sequence: MVTLYLGVM
Kd [12, 29]: 163 nM

Sequence: FLDWIKDIMT
Kd [17, 22]: 146 nM
Kd [18, 22]: 424 nM
Kd [19, 22]: 140 nM

Sequence: VLVGVVTLY
Kd [11, 27]: 58.3 nM
Kd [12, 27]: 13600 nM

Sequence: CALVSDCAST
Kd [17, 22]: 146 nM
Kd [18, 22]: 6410 nM
Kd [19, 22]: 2600 nM
